# Laboratory results reported in patent US20170029530A1 (AbbVie / Abbott, published 2017).
# Positions count from the first letter of the chain named. Several values for one entry are separate records, joined by “and”; a condition that tells them apart may be missing. Equal entries are not always repeated.
# T1: hDPEP3-ECD-His (human, UniProt Q9H4B8 36-463)
# T1 construct: also called hDPEP3-His; monomeric hDPEP3-His antigen; not shown: histidine tag
# T1 sequence: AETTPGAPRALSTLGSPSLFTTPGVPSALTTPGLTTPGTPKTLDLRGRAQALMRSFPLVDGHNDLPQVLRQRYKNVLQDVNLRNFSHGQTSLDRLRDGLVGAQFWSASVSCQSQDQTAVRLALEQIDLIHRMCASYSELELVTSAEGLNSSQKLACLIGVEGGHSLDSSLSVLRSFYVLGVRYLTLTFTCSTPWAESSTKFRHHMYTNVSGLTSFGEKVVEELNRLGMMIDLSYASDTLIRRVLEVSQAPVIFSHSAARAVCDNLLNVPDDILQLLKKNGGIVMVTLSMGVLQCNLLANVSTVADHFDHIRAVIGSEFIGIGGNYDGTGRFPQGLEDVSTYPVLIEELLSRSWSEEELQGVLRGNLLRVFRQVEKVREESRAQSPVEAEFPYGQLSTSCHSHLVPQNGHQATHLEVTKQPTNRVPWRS
# T2: cDPEP3 (Macaca fascicularis, UniProt Q4R7M2)
# T2 construct: extracellular domain; also called cynomolgus DPEP3-His; cynomolgus DPEP3 ECD with histidine tag
# T2 sequence (single chain, looked up): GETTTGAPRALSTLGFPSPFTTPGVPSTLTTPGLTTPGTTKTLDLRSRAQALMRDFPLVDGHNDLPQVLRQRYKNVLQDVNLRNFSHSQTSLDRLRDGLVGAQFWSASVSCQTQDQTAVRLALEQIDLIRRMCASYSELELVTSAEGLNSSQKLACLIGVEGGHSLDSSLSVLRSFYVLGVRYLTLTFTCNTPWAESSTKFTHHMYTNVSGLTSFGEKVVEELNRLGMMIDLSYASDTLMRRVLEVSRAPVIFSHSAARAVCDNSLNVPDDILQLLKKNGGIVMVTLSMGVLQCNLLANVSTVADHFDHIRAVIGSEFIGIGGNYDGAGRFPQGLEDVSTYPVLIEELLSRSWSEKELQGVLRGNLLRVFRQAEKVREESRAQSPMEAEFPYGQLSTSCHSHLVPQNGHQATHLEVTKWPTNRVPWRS
# T3: mDPEP3 (limits assumed)
# T3 construct: also called mouse DPEP3-His; mouse DPEP3 ECD with histidine tag
# T3 single chain: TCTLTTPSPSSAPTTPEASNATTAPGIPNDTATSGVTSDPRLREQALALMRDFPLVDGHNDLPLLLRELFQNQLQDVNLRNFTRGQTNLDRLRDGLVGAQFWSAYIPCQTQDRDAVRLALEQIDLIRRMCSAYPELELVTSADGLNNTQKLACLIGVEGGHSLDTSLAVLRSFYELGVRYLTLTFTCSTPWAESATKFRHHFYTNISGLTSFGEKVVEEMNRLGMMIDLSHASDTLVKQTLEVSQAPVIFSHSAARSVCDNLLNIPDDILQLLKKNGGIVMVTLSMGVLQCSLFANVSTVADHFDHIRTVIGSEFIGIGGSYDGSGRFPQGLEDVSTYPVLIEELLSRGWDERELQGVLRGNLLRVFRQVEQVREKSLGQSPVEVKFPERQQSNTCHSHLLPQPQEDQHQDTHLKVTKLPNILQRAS
# T4: rat DPEP3 ECD with histidine tag (rat, UniProt Q5U2X4 36-459, limits assumed)
# T4 construct: also called rDPEP3-His; ratDPEP3-His; not shown: histidine tag
# T4 sequence: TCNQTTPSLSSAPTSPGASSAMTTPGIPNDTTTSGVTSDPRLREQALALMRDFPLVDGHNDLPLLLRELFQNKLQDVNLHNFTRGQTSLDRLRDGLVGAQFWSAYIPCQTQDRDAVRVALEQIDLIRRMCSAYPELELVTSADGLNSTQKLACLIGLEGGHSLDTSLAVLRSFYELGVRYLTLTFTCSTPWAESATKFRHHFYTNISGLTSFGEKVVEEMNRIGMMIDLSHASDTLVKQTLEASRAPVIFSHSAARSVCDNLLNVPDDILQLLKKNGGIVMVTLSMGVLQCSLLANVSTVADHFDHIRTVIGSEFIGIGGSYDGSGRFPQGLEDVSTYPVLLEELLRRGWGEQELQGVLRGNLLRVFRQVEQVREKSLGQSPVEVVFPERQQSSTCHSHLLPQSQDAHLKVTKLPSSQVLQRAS
# B1: SC34.87 (antibody, mouse IgG2a, V domains shown)
# VH: QVQLQQSGAELAKPGASVKMSCKASGYTFTSYWMLWVKQRPGQGLEWIGYIDPRNGYTEYNQKFKDKATLTADKSSSTAYMQLSSLTSEDSAVYYCTRGGNVAMDYWGQGTSVTVSS
# VL: DIVMSQSPSSLAVSAGEKVTMSCKSSQSLLNSRTRKNYLAWYQQKPGQSPKLLIYWASTRESGVPGRFTGSGSGTDFTLTISSVQAEDLAVYYCKQSYNLWTFGGGTKLEIK
# B2: SC34.5 (antibody, mouse IgG1, V domains shown)
# VH: EVQLQQSGPELVKPGASMKISCKASGYSFTGYTMNWVKQSHGKNLEWIGLIYPYNDDTRYKQKFKGKATLTVDKSSSTAYMELLSLTSEDSAVYYCTRGYYGSPYFDVWGAGTTVTVSS
# VL: DIVMTQFPSSLAMSVGQKVTMNCKSSQSLLNSSNQKNYLAWFQQKPGQSPKLLVYFASTRESGVPDRFLGSGSGTDFTLTISSVQAEDLADYFCQQHYSTPFTFGSGTKLEIK
# notes: also called SC34.05
# B3: SC34.89 (antibody, mouse IgG1, V domains shown)
# VH: QVQLQQSGAELARPGASVKLSCKASGYTFTSYAISWVKQRTRQGLEWIGEIYPGSGDIHYSGKFKGKASLTTDKSSSTAYMQLSSLTSEDSAVYFCARVHDYGSWFPYWGQGTLVTVSA
# VL: DIVMSQSPSSLGVSVGEKVTLSCKSSQSLFNKRDQKNYLAWYQQKPGQSPKLLIYWASTRESGVPDRFTGSGSGTDFILTIRSVKAEDLAVYYCHQSYRYPLTFGAGTKLELK
# B4: SC34.13 (antibody, mouse IgG2a, V domains shown)
# VH: B3 VH with L4V, R42G, D57N, I58T, H59Y, S61N, S69T, H100D
# VL: DIVMSQSPSSLAVSVGEKVTLSCKSSQSLLYSRYQKNYLAWYQQKPGQSPRLVIYWASTRESGVPDRFTGSGSGTDFTLTISSVKAEDLVVYYCQQYYRYPLTFGSGTKLELK
# B5: SC34.58 mouse anti-DPEP3 antibody (antibody, V domains shown)
# VH: QVQLQQSGAELARPGASVKLSCKASGYTFTSYGVNWVKQRTGQGLEWIGEIYPGRGDVYYNDNFKGKATLTTDKSSSTAYMQLSSLTSEDSAVYFCARVHDYGSWFPYWGQGTLVTVSA
# VL: B4 VL with L21M, Y34N, R51K, V53L, V90A, Q95H, Y97H, S106A, K113R
# notes: Mouse hybridoma antibody
# B6: SC34.19 (antibody, mouse IgG1, V domains shown)
# VH: B3 VH with S35T, R42G, D57N, I58T, H59F, Y60F, S61N, G62E, K67R, S69T
# VL: DIVMSQSPSALAVSVGEKITMSCKCSQSLLHSRDQKNYLAWYQQKPGQSPKLLIYWASTRESGVPDRFTGSGSGTDFTLTINTVKAEDLAVYYCQQHYRYPLTFGAGTKLELK
# B7: SC34.14 (antibody, mouse IgG1, V domains shown)
# VH: EVQLQQSGPEMVKPGASVKISCKASGYIFTDYYMHWVKQSHGESLDWIGRVNPKKGGTTYNQKFEGKAILTVDKSSSTAYMDLNSLTSEDSAVYYCAMGIYYSYDASFDYWGQGTTLTVSS
# VL: DIQMTQAPASLSPSVGATVTITCRTSEHIYSYLAWYQQKQGKSPRLLVYNAKTLAEGVSSRFSGSGSGTQFSLQINSLQPEDFGNYYCQHHYDTPYTFGGGTKLEIK
# B8: SC34.48 (antibody, mouse IgG1, V domains shown)
# VH: B7 VH with P9L, E43K, I69T, Y102F
# VL: B7 VL with P13A, A17E, E27G, R45Q, Q74K, N76T, N85D
# B9: SC34.16 (antibody, mouse IgG1, V domains shown)
# VH: QVQLQQSGTELARPGASVKLSCKASEYTFTSYAITWVRQRTGQGLEWIGEIYPGSGNTYYNETFKGKATLTSDKSSSTASMQLSSLTSEDSAVYFCARVHDYGSWFPYWGQGTLVTVSA
# VL: B4 VL with L21M, R51K, V53L, A57S, V90A, V91D, S106A
# B10: SC34.25 (antibody, mouse IgG1, V domains shown)
# VH: QVQLQQSGVELARPGASVKVSCKASGYTFTSYAISWVKQRTGQGLEWIGEIYPGSGETYYNEKFKGKATLTTDKSSSTAYMHLSSLTSEDSAVYLCGRVNDYGSWFPYWGQGTLVTVSA
# VL: B4 VL with V15G, L21M, L39V, R51K, V53L, V90A, S106A
# Target: T1, hDPEP3-ECD-His
# Assay: BLI ForteBio RED, 200 nM hDPEP3-His, estimated grade
# Method: The affinity of the antibodies for hDPEP3-His was qualitatively determined from kinetics curves generated with a ForteBio RED as follows. Anti-DPEP3 antibodies were immobilized onto anti-mouse Fc capture biosensors with a contact time of 3 mins. and a flow rate of 1000 rpm. The captured antibody loading from baseline was constant at 0.3-1 units. Following antibody capture and 30 second baseline, the biosensors were dipped into a 200 nM solution of hDPEP3-His for a 4 min. association phase followed by a 3 min. dissociation phase at a shaking rate of 1000 rpm. The biosensors were regenerated by dipping into 10 mM glycine, pH 1.7 following each cycle. The data was processed by subtracting a control mouse IgG surface response from the specific antibody response and data was truncated to the association and dissociation phase. The association and dissociation curves were used to qualitatively estimate the affinities of selected antibodies. […] A designation of “ND” means that the estimated KD was not determined.
row,Kd,Binder
1,≥ 5 nM and ≤ 10 nM,B1
2,< 5 nM,B2
3,< 5 nM,B3
4,≥ 5 nM and ≤ 10 nM,B4
5,< 5 nM,B5
6,≥ 5 nM and ≤ 10 nM,B6
7,< 5 nM,B7
8,< 5 nM,B8
9,< 5 nM,B9
10,< 5 nM,B10

# Target: T2, cDPEP3
# Assay: ELISA, coated antigen
# Method: (§1) The anti-DPEP3 antibodies were screened by ELISA for cross-reactivity with mouse, rat and cynomolgus DPEP3 and for cross reactivity to hDPEP2, the closest DPEP3 family member. ELISA was conducted as follows. Plates were coated with purified mouse, rat or cynomolgus DPEP3-His or hDPEP2-His at 0.3 μg/mL in 0.2 M carbonate-bicarbonate buffer, pH 9.4 overnight at 4° C. The protein solution was removed and the wells were blocked with 1% (w/v) BSA in PBS (PBSA), 100 μL/well for 1 hour at 37° C. Anti-DPEP3 antibody or a mouse isotype control antibody was then added at 1 μg/mL in 50 μL PBSA for 1 hour at room temperature. After washing with water, 50 μL/well HRP-labeled goat anti-mouse IgG antibody diluted 1:10,000 in PBSA was added for 30 min at room temperature. The plates were washed and developed by the addition of 40 μL/well of the TMB substrate solution (Thermo Scientific) at room temperature. An equal volume of 0.2 M H₂SO₄ was added to stop substrate development. The samples were then analyzed by spectrophotometer at OD 450. […] The cross reactivity results for exemplary DPEP3-specific antibodies can be seen in FIG. 4.
row,binding result,Binder
1,no binding (tested: 1 ug/mL),B1
2,no binding (tested: 1 ug/mL),B2
3,no binding (tested: 1 ug/mL),B7
4,no binding (tested: 1 ug/mL),B8

# Target: T3, mDPEP3
# Assay: ELISA, coated antigen
# Method: as §1
row,binding result,Binder
1,no binding (tested: 1 ug/mL),B1
2,no binding (tested: 1 ug/mL),B2
3,no binding (tested: 1 ug/mL),B3
4,no binding (tested: 1 ug/mL),B4
5,no binding (tested: 1 ug/mL),B5
6,no binding (tested: 1 ug/mL),B6
7,no binding (tested: 1 ug/mL),B7
8,no binding (tested: 1 ug/mL),B8
9,no binding (tested: 1 ug/mL),B9
10,no binding (tested: 1 ug/mL),B10

# Target: T5, hDPEP2 ECD with histidine tag (human, UniProt Q9H4A9 33-463)
# T5 construct: also called hDPEP2-His; not shown: histidine tag
# Assay: ELISA, coated antigen
# Method: as §1
# T5 sequence (Q9H4A9 33-463): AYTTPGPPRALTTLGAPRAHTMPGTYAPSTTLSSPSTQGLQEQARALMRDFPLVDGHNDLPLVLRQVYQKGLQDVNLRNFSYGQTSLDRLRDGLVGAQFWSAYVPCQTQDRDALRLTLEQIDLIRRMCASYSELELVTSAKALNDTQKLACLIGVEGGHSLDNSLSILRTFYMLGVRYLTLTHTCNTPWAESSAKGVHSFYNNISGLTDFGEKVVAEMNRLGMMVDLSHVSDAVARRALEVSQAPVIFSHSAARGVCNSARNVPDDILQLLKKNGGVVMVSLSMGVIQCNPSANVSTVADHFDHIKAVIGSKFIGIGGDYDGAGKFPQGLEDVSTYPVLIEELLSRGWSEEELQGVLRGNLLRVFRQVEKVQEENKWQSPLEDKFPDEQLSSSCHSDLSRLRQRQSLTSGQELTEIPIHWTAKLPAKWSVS
row,binding result,Binder
1,no binding (tested: 1 ug/mL),B1
2,no binding (tested: 1 ug/mL),B2
3,no binding (tested: 1 ug/mL),B3
4,no binding (tested: 1 ug/mL),B4
5,no binding (tested: 1 ug/mL),B5
6,no binding (tested: 1 ug/mL),B6
7,no binding (tested: 1 ug/mL),B9
8,no binding (tested: 1 ug/mL),B10

# Target: T4, rat DPEP3 ECD with histidine tag
# Assay: ELISA, coated antigen
# Method: as §1
row,binding result,Binder
1,no binding (tested: 1 ug/mL),B2
2,no binding (tested: 1 ug/mL),B3
3,no binding (tested: 1 ug/mL),B4
4,no binding (tested: 1 ug/mL),B5
5,no binding (tested: 1 ug/mL),B6
6,no binding (tested: 1 ug/mL),B7
7,no binding (tested: 1 ug/mL),B8
8,no binding (tested: 1 ug/mL),B9
9,no binding (tested: 1 ug/mL),B10
